Data taken from paper PMC11091522.

T1: rmCD3δε-Fc (CD3 delta/CD3 epsilon heterodimer) (mouse, UniProt P04235;P22646 22-105;22-108)
T1 sequence 1: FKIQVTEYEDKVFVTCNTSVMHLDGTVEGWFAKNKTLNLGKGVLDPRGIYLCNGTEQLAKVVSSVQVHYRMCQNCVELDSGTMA
T1 sequence 2: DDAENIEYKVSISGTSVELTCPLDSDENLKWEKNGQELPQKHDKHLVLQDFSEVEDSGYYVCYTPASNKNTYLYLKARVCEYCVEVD

B1: CD3 Apt3 monomer (XNA)
RNA: GGGAGAGAAGGAUAGGGUCCCUACCUGAAACUCGAAGAUGAGCCCUGUCUGAUUCCUUAUACCUCCUUUCCC
modifications: 2'-fluoro pyrimidines
B2: CD3 Apt12 monomer (XNA)
RNA: GGGAGAGAAGGAUAGGGUCCCCUGUCGAUAUCCACCGUCUGGCCCGCAUUGAUUCCUUAUACCUCCUUUCCC
modifications: 2'-fluoro pyrimidines
B3: CD3 Apt1 monomer (XNA)
RNA: GGGAGAGAAGGAUAGGGCCCCGAUUGAUUCGCAAUGUGCGUCCCCUCGUGCCUUCCUUAUACCUCCUUUCCC
modifications: 2'-fluoro pyrimidines
B4: CD3 Apt5 monomer (XNA)
RNA: GGGAGAGAAGGAUAGGGCCUUGCCUGCUUUCACGUGUGAUCCCUGCCCGUUUCCUUAUACCUCCUUUCCC
modifications: 2'-fluoro pyrimidines

molecular target: T1, rmCD3δε-Fc (CD3 delta/CD3 epsilon …); experiment: filter binding

Binding result, binds:
B1, B2, B3, B4
